Assay results published in publication PMC3091956.

Target: T1, 6xHis-Stg (N-terminally histidine-tagged full-length mouse stargazin) (mouse), O88602
T1 chain: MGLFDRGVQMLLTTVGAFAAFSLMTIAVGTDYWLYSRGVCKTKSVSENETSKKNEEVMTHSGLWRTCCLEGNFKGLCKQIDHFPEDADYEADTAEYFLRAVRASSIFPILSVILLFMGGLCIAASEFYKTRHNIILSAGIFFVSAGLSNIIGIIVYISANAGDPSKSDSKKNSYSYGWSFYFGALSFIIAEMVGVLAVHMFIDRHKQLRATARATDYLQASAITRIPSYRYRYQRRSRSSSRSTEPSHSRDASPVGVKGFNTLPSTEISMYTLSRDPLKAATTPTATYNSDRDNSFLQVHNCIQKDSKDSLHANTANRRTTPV
Assay: electron crystallography of 2D crystals
Details: remark: other sources report otherwise

- stoichiometry N: 2
B1: 6xHis-Stg (N-terminally histidine-tagged full-length mouse stargazin), O88602 1-323 (natural protein)
chain: T1 chain
